The text below walks through data of patent publication US5785967.

A value given as a limit tells only on which side of the number the result lay.

Assay [1] concerns the target Recombinant human leukemia inhibitory factor (LIF) (human) (UniProt P15018). Description: Scatchard analysis, LIF-R/Fc on Protein G Sepharose beads with serial dilutions of 125I-LIF.
Assay [2] addresses LIF receptors on the surface of DA-1 cells. Description: 125I-LIF binding to intact DA-1 cells, phthalate oil separation.
The target of assay [3] is Human LIF-R encoded by cDNA clone 65 (pHLIFR-65), expressed on transfected COS-7 cells (human). Nature of the assay: 125I-LIF binding to COS cells transfected with LIF-R cDNA clone 65, Scatchard analysis.

Take “Soluble human LIF-R/Fc homodimer (Fc fusion)”: the Ka in assay [1] was 9e+08 M⁻¹.

In the case of “Recombinant human leukemia inhibitory factor (LIF) (from UniProt P15018) (ligand)”, the Ka was 7.4e+08 M⁻¹ in assay [2] and more than 1e+09 M⁻¹ in assay [3].
